Assay results published in paper doi:10.1101/285569.

Experiments:
Bruno = Bruno (UniProt O02374 1-604); experiment: EMSA
[1] = biological target: T1, Pumilio RNA-binding domain (UniProt P25822 1091-1426); experiment: EMSA
T1 sequence: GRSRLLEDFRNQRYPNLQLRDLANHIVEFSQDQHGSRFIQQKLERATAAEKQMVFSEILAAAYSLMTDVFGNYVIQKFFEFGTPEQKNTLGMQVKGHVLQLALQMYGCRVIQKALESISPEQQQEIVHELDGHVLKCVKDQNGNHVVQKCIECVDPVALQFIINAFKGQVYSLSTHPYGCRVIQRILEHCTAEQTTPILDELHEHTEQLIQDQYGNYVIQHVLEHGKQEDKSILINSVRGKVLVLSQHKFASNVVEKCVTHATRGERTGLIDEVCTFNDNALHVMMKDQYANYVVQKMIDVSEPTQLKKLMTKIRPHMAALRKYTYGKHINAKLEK

Binder: UAAUCAAGAUACAUAUAUGC (ssRNA) [Scramble RNA]
- binding result (Bruno): no binding
- binding result [1]: no binding
